This experiment addresses SARS-CoV S-6P protein (SARS-CoV) (UniProt P59594). Put plainly: cryo-EM structure.

In the case of “SARS-CoV S-6P protein (from UniProt P59594 14-1195) (domain or fragment)”, the stoichiometry N (usually a count of units in the complex or per binding partner) stood at 3.

(Values after doi:10.1101/2022.01.19.476892.)
